The target in assay [1] is T1, His-tagged recombinant murine HtrA1 protease domain (murine, UniProt Q9R118 156-367).
T1 construct: His-tagged protease domain; also called muHtrA1-PD-His; muHtrA1-PD
As to the kind of experiment: SPR (BIACORE T100), single-cycle kinetics; biotinylated HtrA1-PD-His on streptavidin, Fab injected. An excerpt: (§1) To determine the binding affinity of anti-HtrA1 Fabs by single-cycle kinetics, (SPR) measurement with a BIACORE™ T100 instrument was used. Briefly, a series S sensor chip CM5 was activated with 1-ethyl-3-(3-dimethylamino-propyl)carbodiimide hydrochloride (EDC) and N-hydroxysuccinimide (NHS) reagents according to the supplier's instructions, and streptavidin (Pierce) was coupled to achieve approximately 2500 response units (RU), followed by blocking un-reacted groups with 1 M ethanolamine.
(§2) For kinetics measurements, biotinylated human or murine HtrA1-PD-His was first injected at 10 μl/min flow rate to capture approximately 150 RU at 3 different flow cells (FC), except for FC1 (which served as a reference), and then 5-fold serial dilutions of anti-HtrA1 Fab in HBS-P buffer (0.01M HEPES pH 7.4, 0.15 M NaCl, 0.005% surfactant P20) from low (0.48 nM) to high (300 nM) were injected (flow rate: 30 μl/min) one after the other in the same cycle with no regeneration between injections. The sensorgram was recorded and subject to reference and buffer subtraction before evaluating by BIACORE™ T100 Evaluation Software (version 2.0). Association rates (kₒₙ) and dissociation rates (koff) were calculated using a simple one-to-one Langmuir binding model. The equilibrium dissociation constant (KD) was calculated as the ratio koff/kₒₙ.

The target in assay [2] is T2, His-tagged human HtrA1 protease domain (human, UniProt Q92743 161-367).
T2 construct: His-tagged protease domain; also called huHtrA1-PD-His; huHtrA1-PD
The assay is described as above.
Text: as §1, §2

Assay [3] addresses T2, His-tagged human HtrA1 protease domain. Briefly: phage competition ELISA (Fab on phage, HtrA1 in solution). The procedure: MAXISORP™ microliter plates were coated with human HtrA1-PD-His at 2 μg/ml in PBS for 2 h and then blocked with PBST buffer (0.5% BSA and 0.05% TWEEN®20 in PBS) for 1 h at room temperature. Phage purified from culture supernatants were incubated with serially-diluted human or murine HtrA1 in PBST buffer in a tissue-culture microtiter plate for 1 h, after which 80 μl of the mixture was transferred to human HtrA1-coated wells for 15 min to capture unbound phage. The plate was washed with PBT buffer (0.05% TWEEN®20 in PBS), and HRP-conjugated anti-M13 antibody (Amersham Pharmacia Biotech) was added (1:5000 in PBST buffer) for 40 min. The plate was washed with PBT buffer and developed by adding tetramethylbenzidine substrate (Kirkegaard and Perry Laboratories, Gaithersburg, Md.). The absorbance at 450 nm was plotted as a function of target concentration in solution to determine phage IC50.

Assay [4] has the same target. Briefly: SPR (BIACORE), Fab.
The target is the same in assay [5]. As to the kind of experiment: BIACORE SPR, single-cycle kinetics; Fab analyte over captured human HtrA1.
Assay [6] shares this target. Briefly: BIACORE T200 SPR; Fab analyte over huHtrA1-PD-His captured by anti-His antibody. The procedure: (§3) To determine the binding affinity of selected Fab variants for HtrA1, SPR measurement with a BIACORE™ T200 instrument was performed. Briefly, a series S sensor chip CM5 was activated with 1-EDC and NHS reagents according to the supplier's instructions, and anti-His antibody was coupled to achieve 200-300 response units (RU), then following by blocking un-reacted groups with 1 M ethanolamine. For kinetics measurements, approximately 5 nM of huHtrA1-PD-His was first injected at 10 μl/min flow rate to capture approximately 100 RU at 2 different flow cells (FC), except for FC1 (which served as a reference). Next, 5-fold serial dilutions of Fab in HBS-P buffer (0.01M HEPES pH 7.4, 0.15M NaCl, 0.005% surfactant P20) from low (0.8 nM) to high (50 nM) were injected (flow rate: 30 μl/min). The binding responses on HtrA1 were corrected by subtracting of RU from a blank flow cell. The sensorgram was recorded and subject to reference and buffer subtraction before evaluating by BIACORE® T200 Evaluation Software (version 2.0). Association rates (kₒₙ) and dissociation rates (koff) were calculated using a simple one-to-one Langmuir binding model. The equilibrium dissociation constant (KD) was calculated as the ratio of koff/kₒₙ.

Assay [7] has the same target. Briefly: BIACORE SPR, Fab analyte, Human HtrA1-PD (N=2).
Assay [8] shares this target. Briefly: BIACORE SPR analysis, Fab format. As for the experimental part: as §3
Assay [9] has the same target. As to the kind of experiment: cell-based or functional assay.
The target of assay [10] is T1, His-tagged recombinant murine HtrA1 …. Briefly: SPR (BIACORE), Fab.
Text: (§4) To address W91 oxidation in HVR-L3, 2 variants (LC-W91Y and LC-W91L) were generated and produced as Fabs for BIACORE™ SPR binding analysis.
as §1, §2

Assay [11] has as its target T2, His-tagged human HtrA1 protease domain. Briefly: SPR (BIACORE), Fab.
Text: as §4, §1, §2
The source holds these as a separate data set.

T2 sequence (Q92743 other isoform, or with tags, fused parts or gaps limits assumed): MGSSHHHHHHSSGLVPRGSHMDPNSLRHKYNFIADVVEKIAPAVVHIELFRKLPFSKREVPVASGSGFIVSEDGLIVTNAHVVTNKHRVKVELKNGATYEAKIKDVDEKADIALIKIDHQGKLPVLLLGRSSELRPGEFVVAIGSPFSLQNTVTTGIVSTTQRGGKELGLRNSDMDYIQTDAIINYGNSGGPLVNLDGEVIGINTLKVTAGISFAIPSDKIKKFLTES

B1: m15H6 Fab (Fab, V domains shown)
VH: QVQLQQSGAELVRPGASVTLSCKASGYTFTDSEMHWVKQTPVHGLEWIGGVDPETDGAAYNQKFKGKATLTADKSSSTAYMELRSLTSEDSAVYYCTRGYDYDYALDYWGQGTSVTVSS
VL: QIVLSQSPAILSASPGEKVTMTCRASSSVNFIHWYQQKPGSSPKPWISATSNLASGVPPRFSGSGSGTSYSLTISRVEAEDAATYYCQQWSSNPWTFGGGTKLEIK
notes: Tested as Fab; also called ml5H6 Fab; m15H6 in Fab format
Regarding B1, in assay [1], the Kd came to 0.3 nM, the koff was 0.000163 s⁻¹ and the kon came out at 539000 M⁻¹ s⁻¹. In assay [2], this molecule had a Kd of 0.31 nM, a koff of 0.000155 s⁻¹ and a kon of 506000 M⁻¹ s⁻¹.

B2: m19B12 Fab (Fab, V domains shown)
VH: EVKLVESGGGLVEPGGSLKLACVASGFTFSSYIMSWVRQTPEKRLEWVAYISNGGGTTYYSDTIKGRFTISRDNAKNTLYLQMSTLKSEDTAIYFCARQNFRSDGSSMDYWGQGTAVTVSS
VL: NIVVTQSPASLAVSLGQRATISCRASESVDSYGKSFMHWYQQKPGQPPKLLIYLASKLESGVPARFSGSGSRTDFTLTIDPVEADDAATYYCQQNNEDPYTFGGGTKLEIK
notes: Tested in Fab format
Take B2: in assay [1], the Kd amounted to 6.43 nM, the koff amounted to 0.00117 s⁻¹ and the kon stood at 182000 M⁻¹ s⁻¹. For the same molecule, in assay [2], binding was put at a Kd of 23.8 nM, the off-rate constant (koff) amounted to 0.00228 s⁻¹ and the kon came out at 96000 M⁻¹ s⁻¹.

B3: h15H6.v1 HC-A67V variant (Fab, V domains shown)
VH: EVQLVQSGAEVKKPGASVKVSCKASGYTFTDSEMHWVRQAPGQGLEWIGGVDPETDGAAYNQKFKGRVTLTADTSTSTAYLELSSLRSEDTAVYYCTRGYDYDYALDYWGQGTLVTVSS
VL: DIQMTQSPSSLSASVGDRVTITCRASSSVNFIHWYQQKPGKAPKPWISATSNLASGVPSRFSGSGSGTDFTLTISSLQPEDFATYYCQQWSSNPWTFGQGTKVEIK
notes: built as h15H6.v1
For the molecule B3, the binding result in assay [3] was “binds”.

B4: h15H6.v2 LC-N94Q LC-P95 Fab (Fab, V domains shown)
VH: EVQLVQSGAEVKKPGASVKVSCKASGYTFTDSEMHWVRQAPGQGLEWIGGVDPETDGAAYNQKFKGRATITRDTSTSTAYLELSSLRSEDTAVYYCTRGYDYDYALDYWGQGTLVTVSS
VL: DIQMTQSPSSLSASVGDRVTITCRASSSVNFIHWYQQKPGKAPKPLISATSNLASGVPSRFSGSGSGTDFTLTISSLQPEDFATYYCQQWSSQPWTFGQGTKVEIK
notes: Produced as Fab; also called QP
Consider B4, for which the “fold reduction in binding affinity against h15H6.v2” value in [4] was ~2 fold. In assay [5], this molecule showed a dissociation constant Kd of 0.52 nM, a koff of 0.00029 s⁻¹ and a kon of 560000 M⁻¹ s⁻¹.

B5: h15H6.v2 LC-N94S LC-P95 Fab (Fab, V domains shown)
VH: EVQLVQSGAEVKKPGASVKVSCKASGYTFTDSEMHWVRQAPGQGLEWIGGVDPETDGAAYNQKFKGRATITRDTSTSTAYLELSSLRSEDTAVYYCTRGYDYDYALDYWGQGTLVTVSS
VL: DIQMTQSPSSLSASVGDRVTITCRASSSVNFIHWYQQKPGKAPKPLISATSNLASGVPSRFSGSGSGTDFTLTISSLQPEDFATYYCQQWSSSPWTFGQGTKVEIK
notes: Produced as Fab; also called SP
Regarding B5, the “fold reduction in binding affinity against h15H6.v2” value in assay [4] was ~2 fold. In assay [5], binding was put at a Kd of 0.52 nM, the koff turned out to be 0.00025 s⁻¹ and the kon stood at 480000 M⁻¹ s⁻¹.

B6: h15H6.v2.APEG Fab (Fab, name in Kabat numbering, V domains shown)
VH: EVQLVQSGAEVKKPGASVKVSCKASGYTFTDSEMHWVRQAPGQGLEWIGGVDPETEGAAYNQKFKGRATITRDTSTSTAYLELSSLRSEDTAVYYCTRGYDYDYALDYWGQGTLVTVSS
VL: DIQMTQSPSSLSASVGDRVTITCRASSSVNFIHWYQQKPGKAPKPLISATSNLASGVPSRFSGSGSGTDFTLTISSLQPEDFATYYCQQWSSAPWTFGQGTKVEIK
notes: also called h15H6.v3; LC-N94A LC-P95 HC-D55E HC-G56
In assay [6], B6 returned a Kd of 0.546 nM, a koff of 0.000172 s⁻¹ and an association rate constant (kon) of 315000 M⁻¹ s⁻¹. For the same molecule, in [7], binding was put at a Kd of 0.6 nM, the koff came to 0.00021 s⁻¹ and the kon stood at 350000 M⁻¹ s⁻¹. In [8], this molecule had a Kd of 0.546 nM, a koff of 0.000172 s⁻¹ and a kon of 315000 M⁻¹ s⁻¹. Moreover, in assay [9], the “IC50 FRET (H2-Opt substrate cleavage)” value was 0.41 nM, the “IC90 FRET (H2-Opt substrate cleavage)” value amounted to 2.77 nM and the “Max inhibition (FRET H2-Opt assay)” value came to 77.

B7: h15H6.v2 LC-W91Y Fab (Fab, V domains shown)
VH: EVQLVQSGAEVKKPGASVKVSCKASGYTFTDSEMHWVRQAPGQGLEWIGGVDPETDGAAYNQKFKGRATITRDTSTSTAYLELSSLRSEDTAVYYCTRGYDYDYALDYWGQGTLVTVSS
VL: DIQMTQSPSSLSASVGDRVTITCRASSSVNFIHWYQQKPGKAPKPLISATSNLASGVPSRFSGSGSGTDFTLTISSLQPEDFATYYCQQYSSNPWTFGQGTKVEIK
notes: Produced as Fab
For B7, in [10], the Kd amounted to 7.1 nM, the koff was determined as 0.0017 s⁻¹ and the kon is 240000 M⁻¹ s⁻¹. In addition, in assay [11], the Kd turned out to be 11.2 nM, the koff was determined as 0.0037 s⁻¹ and the on-rate constant (kon) amounted to 330000 M⁻¹ s⁻¹.

B8: h15H6.v2 LC-W91L Fab (Fab, V domains shown)
VH: EVQLVQSGAEVKKPGASVKVSCKASGYTFTDSEMHWVRQAPGQGLEWIGGVDPETDGAAYNQKFKGRATITRDTSTSTAYLELSSLRSEDTAVYYCTRGYDYDYALDYWGQGTLVTVSS
VL: DIQMTQSPSSLSASVGDRVTITCRASSSVNFIHWYQQKPGKAPKPLISATSNLASGVPSRFSGSGSGTDFTLTISSLQPEDFATYYCQQLSSNPWTFGQGTKVEIK
notes: Produced as Fab
B8: in assay [10], the Kd stood at 7.6 nM, the koff is 0.00091 s⁻¹ and the kon is 120000 M⁻¹ s⁻¹. In assay [11], this molecule gave a Kd of 10.7 nM, a koff of 0.0016 s⁻¹ and a kon of 150000 M⁻¹ s⁻¹.

B9: h15H6.v1 HC-T93A variant (Fab, V domains shown)
VH: EVQLVQSGAEVKKPGASVKVSCKASGYTFTDSEMHWVRQAPGQGLEWIGGVDPETDGAAYNQKFKGRATLTADTSTSTAYLELSSLRSEDTAVYYCARGYDYDYALDYWGQGTLVTVSS
VL: DIQMTQSPSSLSASVGDRVTITCRASSSVNFIHWYQQKPGKAPKPWISATSNLASGVPSRFSGSGSGTDFTLTISSLQPEDFATYYCQQWSSNPWTFGQGTKVEIK
notes: built as h15H6.v1
As to B9, the binding result in assay [3] was “binds”.

For the origin of these results see US20170145113A1 (Genentech, published 2017).
